Measurements as given in article PMC11208152, “Dynamic Arabidopsis P5CS filament facilitates substrate channelling” (Nature Plants, 2024).

B1: Arabidopsis thaliana delta-1-pyrroline-5-carboxylate synthase 2 (AtP5CS2), wild type (enzyme, UniProt P54888 1-726, looked up)
chain: MTEIDRSRAFAKDVKRIVVKVGTAVVTGKGGRLALGRLGAICEQLAELNSDGFEVILVSSGAVGLGRQRLRYRQLVNSSFADLQKPQMELDGKACAGVGQSSLMAYYETMFDQLDVTVAQMLVTDSSFRDKDFRKQLSETVKAMLRMRVIPVFNENDAISTRRAPYKDSTGIFWDNDSLAALLSLELKADLLILLSDVEGLYTGPPSDSTSKLIHTFIKEKHQDEITFGEKSKLGRGGMTAKVKAAVNAAYGGVPVIITSGYAAENISKVLRGLRVGTLFHQDAHLWAPVVDTTSRDMAVAARESSRKLQALSSEDRKQILHDIANALEVNEKTIKAENDLDVAAAQEAGYEESLVARLVMKPGKISSLAASVRQLAEMEDPIGRVLKKTQVADDLILEKTSSPIGVLLIVFESRPDALVQIASLAIRSGNGLLLKGGKEARRSNAILHKVITDAIPETVGGKLIGLVTSREEIPDLLKLDDVIDLVIPRGSNKLVSQIKNSTKIPVLGHADGICHVYVDKSGKLDMAKRIVSDAKLDYPAACNAMETLLVHKDLEQNGFLDDLIYVLQTKGVTLYGGPRASAKLNIPETKSFHHEYSSKACTVEIVEDVYGAIDHIHQHGSAHTDCIVTEDSEVAEIFLRQVDSAAVFHNASTRFSDGFRFGLGAEVGISTSRIHARGPVGVEGLLTTRWIMRGKGQVVDGDNGIVYTHKDLPVLQRTEAVENGI
notes: Delta-1-pyrroline-5-carboxylate synthase 2 (P5CS2) of Arabidopsis thaliana; In the filament the helical unit is a tetramer (GK tetramer core, two GPR dimers); Only the GK tetramer was modelled at high resolution; also called AtP5CS2-WT; WT AtP5CS2; source: E. coli Rosetta (DE3), purified (Ni-NTA, SUMO-tag removed with yeast ULP1, Superose 6 Increase SEC); not shown: His6, N-terminal, cleaved; …
B2: Arabidopsis thaliana delta-1-pyrroline-5-carboxylate synthase 1 (AtP5CS1) (enzyme, UniProt P54887 1-717, looked up)
chain: MEELDRSRAFARDVKRIVVKVGTAVVTGKGGRLALGRLGALCEQLAELNSDGFEVILVSSGAVGLGRQRLRYRQLVNSSFADLQKPQTELDGKACAGVGQSSLMAYYETMFDQLDVTAAQLLVNDSSFRDKDFRKQLNETVKSMLDLRVIPIFNENDAISTRRAPYQDSSGIFWDNDSLAALLALELKADLLILLSDVEGLYTGPPSDPNSKLIHTFVKEKHQDEITFGDKSRLGRGGMTAKVKAAVNAAYAGIPVIITSGYSAENIDKVLRGLRVGTLFHQDARLWAPITDSNARDMAVAARESSRKLQALSSEDRKKILLDIADALEANVTTIKAENELDVASAQEAGLEESMVARLVMTPGKISSLAASVRKLADMEDPIGRVLKKTEVADGLVLEKTSSPLGVLLIVFESRPDALVQIASLAIRSGNGLLLKGGKEARRSNAILHKVITDAIPETVGGKLIGLVTSREEIPDLLKLDDVIDLVIPRGSNKLVTQIKNTTKIPVLGHADGICHVYVDKACDTDMAKRIVSDAKLDYPAACNAMETLLVHKDLEQNAVLNELIFALQSNGVTLYGGPRASKILNIPEARSFNHEYCAKACTVEVVEDVYGAIDHIHRHGSAHTDCIVTEDHEVAELFLRQVDSAAVFHNASTRFSDGFRFGLGAEVGVSTGRIHARGPVGVEGLLTTRWIMRGKGQVVDGDNGIVYTHQDIPIQA
notes: Delta-1-pyrroline-5-carboxylate synthase 1 (P5CS1) of Arabidopsis thaliana; also called His6-AtP5CS1; not shown: His6, N-terminal, kept
B3: AtP5CS2-GK, truncated AtP5CS2 consisting of residues 1-290 (glutamate kinase domain) (domain or fragment, Arabidopsis thaliana, UniProt P54888 1-290, looked up)
chain: MTEIDRSRAFAKDVKRIVVKVGTAVVTGKGGRLALGRLGAICEQLAELNSDGFEVILVSSGAVGLGRQRLRYRQLVNSSFADLQKPQMELDGKACAGVGQSSLMAYYETMFDQLDVTVAQMLVTDSSFRDKDFRKQLSETVKAMLRMRVIPVFNENDAISTRRAPYKDSTGIFWDNDSLAALLSLELKADLLILLSDVEGLYTGPPSDSTSKLIHTFIKEKHQDEITFGEKSKLGRGGMTAKVKAAVNAAYGGVPVIITSGYAAENISKVLRGLRVGTLFHQDAHLWAPV
notes: Delta-1-pyrroline-5-carboxylate synthase 2 (P5CS2) of Arabidopsis thaliana, residues 1-290, the glutamate kinase (GK) domain; probably made as His6-SUMO fusion in E. coli and cleaved with ULP1 like the full-length AtP5CS2 (surmised); also called AtP5CS2 GK domain

Key:
[1] = molecular target: the molecule itself; assay: cryo-EM structure; mixed state: about 5 μM purified protein in reaction buffer with all substrates (25 mM Tris-HCl pH 8.0, 150 mM NaCl, 20 mM glutamate, 10 mM MgCl2, 5 mM ATP, 0.5 mM NADPH), on ice about 30 min (AtP5CS1) or 60 min (AtP5CS2); filament of tetrameric helical units, focus refinement on the GK tetramer
[2] = molecular target: the molecule itself; assay: negative-staining EM; purified protein about 2-4 μM incubated at 25 °C with substrates (ATP, glutamate, both, or all substrates = mixed state) at the concentrations of the activity assay; step seen: oligomers (tetramers) into filaments

| Protein | stoichiometry N [1] | binding result [2] |
| --- | --- | --- |
| B1 | 4 |  |
| B2 | 4 |  |
| B3 |  | binds |
